The values that follow come from PMC7319358.

The target of this assay is Cy5UbPRG fluorescent activity-based probe (UniProt P0CG48).

recombinant DUB2 (enzyme) displayed a percent of DUB2 reacted with the probe of 85%.
